Experimental data published in article doi:10.1101/2024.03.22.586355, “Dynamic fibrillar assembly of αB-crystallin induced by perturbation of the conserved NT-IXI motif resolved by cryo-EM” (bioRxiv, 2024).

Assays:
[1] = molecular target: the molecule itself; experiment: cryo-EM structure; αB-AXA fibrils elongated at room temperature for about four weeks, dialysed (1 MDa m.w.c.o.), 0.5 mg/mL; helical and local refinement with D2 symmetry, 3.4 Å
[2] = molecular target: the molecule itself; experiment: SEC + other: negative-stain electron microscopy; Superose-6 24 mL column; peak fractions examined by negative-stain EM with 2D class averaging; 20 mM HEPES pH 7.4, 150 mM NaCl, 1 mM EDTA

Row | Protein | binding result [1] | binding result [2]
1 | human αB-crystallin NT-AXA variant (natural protein, UniProt P02511 1-175, looked up, human αB-crystallin (HSPB5, CRYAB), 20.2 kDa subunit; The cryo-EM model covers residues 75-161; the last 14 residues are not modelled; also called αB-AXA; source: E. coli BL21, purified (Sephacryl 300 SEC, MonoQ ion exchange), no purification tags) MDAAAHHPWIRRPFFPFHSPSRLFDQFFGEHLLESDLFPTSTSLSPFYLRPPSFLRAPSWFDTGLSEMRLEKDRFSVNLDVKHFSPEELKVKVLGDVIEVHGKHEERQDEHGFISREFHRKYRIPADVDPLTITSSLSSDGVLTVNGPRKQVSGPERTIPITREEKPAVTAAPKK | binds | –
2 | human wildtype αB-crystallin (natural protein, UniProt P02511 1-175, looked up, human αB-crystallin (HSPB5, CRYAB), 20.2 kDa subunit; pET plasmid containing the human αB-crystallin gene; Polydisperse cage-like oligomers; also called αB-wt; αB-WT; source: E. coli BL21, purified (Sephacryl 300 SEC, MonoQ ion exchange), no purification tags) MDIAIHHPWIRRPFFPFHSPSRLFDQFFGEHLLESDLFPTSTSLSPFYLRPPSFLRAPSWFDTGLSEMRLEKDRFSVNLDVKHFSPEELKVKVLGDVIEVHGKHEERQDEHGFISREFHRKYRIPADVDPLTITSSLSSDGVLTVNGPRKQVSGPERTIPITREEKPAVTAAPKK | – | binds
